Experimental findings from patent publication US20170306033A1 (Amgen, published 2017) are described below.

T1: human PAC1 receptor (human, UniProt P41586 21-468)
T1 sequence: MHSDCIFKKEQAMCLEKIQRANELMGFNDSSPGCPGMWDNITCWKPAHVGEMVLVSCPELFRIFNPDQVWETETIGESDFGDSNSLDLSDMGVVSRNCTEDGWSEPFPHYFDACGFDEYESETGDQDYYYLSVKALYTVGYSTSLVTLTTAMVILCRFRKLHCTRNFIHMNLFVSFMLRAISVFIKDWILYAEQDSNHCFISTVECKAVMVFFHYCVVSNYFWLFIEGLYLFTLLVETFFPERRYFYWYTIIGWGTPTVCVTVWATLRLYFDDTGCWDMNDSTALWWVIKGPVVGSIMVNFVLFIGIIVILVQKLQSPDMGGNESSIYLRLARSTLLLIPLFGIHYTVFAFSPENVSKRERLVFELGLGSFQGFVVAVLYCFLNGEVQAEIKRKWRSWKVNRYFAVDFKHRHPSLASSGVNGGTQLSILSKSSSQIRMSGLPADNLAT

B1: iPS:326661 (bispecific antibody, human IgG2, kappa)
light 1: not shown
heavy 1: QVQLQQSGPGLVKPSQTLSLTCAISGDSVSSNSATWNWIRQSPSRGLEWLGRTYYRSKWSNHYAVSVKSRITINPDTSKSQFSLQLNSVTPEDTAVYYCARGTWKQLWFLDHWGQGTLVTVSSASTKGPSVFPLAPCSRSTSESTAALGCLVKDYFPEPVTVSWNSGALTSGVHTFPAVLQSSGLYSLKSVVTVPSSNFGTQTYTCNVDHKPSNTKVDKTVERKCCVECPPCPAPPVAGPSVFLFPPKPKDTLMISRTPEVTCVVVDVSHEDPEVQFNWYVDGVEVHNAKTKPREEQFNSTFRVVSVLTVVHQDWLNGKEYKCKVSNKGLPAPIEKTISKTKGQPREPQVYTLPPSREEMTKNQVSLTCLVDGFYPSDIAVEWESNGQPENNYDTTPPMLDSDGSFFLYSDLTVDKSRWQQGNVFSCSVMHEALHNHYTQKSLSLSPGK
light 2: EIVLTQSPGTLSLSPGERATLSCRASQSVSSGYLTWYQQKPGQAPRLLIYGASSRATGIPDRFSGSGSGTDFTLTISRLEPEDFAVYYCQQYGNSLSRFGQGTKLEIKRTVAAPSVFIFPPSDEQLKSGTASVVCLLNNFYPREAKVQWKVDNALQSGNSQESVTEQDSKDSTYSLKSTLTLSKADYEKHKVYACEVTHQGLSSPVTKSFNRGEC
heavy 2: QVQLVESGGGVVQPGRSLRLSCAASGFTFSSYGMHWVRQAPGKGLEWVAVIWYDGSNKYYADSVKGRFIISRDKSKNTLYLQMNSLRAEDTAVYYCARAGGIAAAGLYYYYGMDVWGQGTTVTVSSASTKGPSVFPLAPCSRSTSESTAALGCLVKDYFPEPVTVSWNSGALTSGVHTFPAVLQSSGLYSLESVVTVPSSNFGTQTYTCNVDHKPSNTKVDKTVERKCCVECPPCPAPPVAGPSVFLFPPKPKDTLMISRTPEVTCVVVDVSHEDPEVQFNWYVDGVEVHNAKTKPREEQFNSTFRVVSVLTVVHQDWLNGKEYKCKVSNKGLPAPIEKTISKTKGQPREPQVYTLPPSRKKMTKNQVSLTCLVKGFYPSDIAVEWESNGQPENNYKTTPPMLKSDGSFFLYSKLTVDKSRWQQGNVFSCSVMHEALHNHYTQKSLSLSPGK
B2: iPS:327699 (bispecific antibody, human IgG1, kappa, lambda, N297G)
light 1: not shown
heavy 1: not shown
light 2: QSVLTQPPSVSAAPGQKVTISCSGSSSNIGNNYVSWYQQLPGTAPKLLIYDNNKRPSGIPDRFSGSKSGTSTTLGITGLQTGDEADYYCGTWDSRLSAVVFGGGTKLTVLGQPKANPTVTLFPPSSEELQANKATLVCLISDFYPGAVTVAWKADGSPVKAGVETTKPSKQSNNKYAAKSYLSLTPEQWKSHRSYSCQVTHEGSTVEKTVAPTECS
heavy 2: QVQLVESGGGVVQPGRSLRLSCAASGFTFSSFGMHWVRQAPGKGLEWVAVISFDGSIKYSVDSVKGRFTISRDNSKNTLFLQMNSLRAEDTAVYYCARDRLNYYESSGYYHYKYYGMAVWGQGTTVTVSSASTKGPSVFPLAPSSKSTSGGTAALGCLVKDYFPEPVTVSWNSGALTSGVHTFPAVLQSSGLYSLESVVTVPSSSLGTQTYICNVNHKPSNTKVDKKVEPKSCDKTHTCPPCPAPELLGGPSVFLFPPKPKDTLMISRTPEVTCVVVDVSHEDPEVKFNWYVDGVEVHNAKTKPCEEQYGSTYRCVSVLTVLHQDWLNGKEYKCKVSNKALPAPIEKTISKAKGQPREPQVYTLPPSRKKMTKNQVSLTCLVKGFYPSDIAVEWESNGQPENNYKTTPPVLKSDGSFFLYSKLTVDKSRWQQGNVFSCSVMHEALHNHYTQKSLSLSPGK
B3: iPS:327711 (bispecific antibody, human IgG1, kappa, lambda, N297G)
light 1: not shown
heavy 1: not shown
light 2: B2 light 2 with T72A
heavy 2: B2 heavy 2 with E105D
B4: iPS:327704 (bispecific antibody, human IgG1, kappa, lambda, N297G)
light 1: not shown
heavy 1: not shown
light 2: B2 light 2 with T72A
heavy 2: B2 heavy 2 with E105D, K370E
B5: iPS:327717 (bispecific antibody, human IgG1, kappa, lambda, N297G)
light 1: not shown
heavy 1: not shown
light 2: B2 light 2 with T72A, G75A
heavy 2: B2 heavy 2 with E105D, K370E
B6: iPS:327712 (bispecific antibody, human IgG1, kappa, lambda, N297G)
light 1: not shown
heavy 1: not shown
light 2: B2 light 2 with T72A
heavy 2: B2 heavy 2 with E105D
B7: iPS:327700 (bispecific antibody, human IgG1, kappa, lambda, N297G)
light 1: not shown
heavy 1: not shown
light 2: B2 light 2
heavy 2: B2 heavy 2
B8: iPS:327701 (bispecific antibody, human IgG1, kappa, lambda, N297G)
light 1: DIQLTQSPSFLSASVGDRVTITCRASQSIGRSLHWYQQKPGKAPKLLIKYASQSLSGVPSRFSGSGSGTEFTLTISSLQPEDFATYYCHQSSRLPFTFGPGTKVDIKRTVAAPSVFIFPPSDEQLKSGTASVVCLLNNFYPREAKVQWKVDNALQSGNSQESVTEQDSKDSTYSLESTLTLSKADYEKHKVYACEVTHQGLSSPVTKSFNRGEC
heavy 1: not shown
light 2: B2 light 2
heavy 2: B2 heavy 2
B9: iPS:327709 (bispecific antibody, human IgG1, kappa, lambda, N297G)
light 1: B8 light 1 with P100E
heavy 1: not shown
light 2: B2 light 2 with T72A, G103K
heavy 2: B2 heavy 2 with G44E, E105D, K370E
B10: iPS:327710 (bispecific antibody, human IgG1, kappa, lambda, N297G)
light 1: EIVLTQSPATLSLSPGERATLSCRASQSVGRSLHWYQQKPGQAPRLLIKYASQSLSGIPARFSGSGSGTDFTLTISSLEPEDFAVYYCHQSSRLPFTFGEGTKVDIKRTVAAPSVFIFPPSDEQLKSGTASVVCLLNNFYPREAKVQWKVDNALQSGNSQESVTEQDSKDSTYSLESTLTLSKADYEKHKVYACEVTHQGLSSPVTKSFNRGEC
heavy 1: not shown
light 2: B2 light 2 with T72A, G103K
heavy 2: B2 heavy 2 with G44E, E105D, K370E
B11: iPS:327713 (bispecific antibody, human IgG1, kappa, lambda, N297G)
light 1: B8 light 1
heavy 1: not shown
light 2: B2 light 2 with T72A
heavy 2: B2 heavy 2 with E105D
B12: iPS:327703 (bispecific antibody, human IgG1, kappa, lambda, N297G)
light 1: not shown
heavy 1: not shown
light 2: B2 light 2 with T72A
heavy 2: B2 heavy 2 with E105D, K370E
B13: iPS:327702 (bispecific antibody, human IgG1, kappa, lambda, N297G)
light 1: B10 light 1 with E100P
heavy 1: not shown
light 2: B2 light 2
heavy 2: B2 heavy 2
B14: iPS:327714 (bispecific antibody, human IgG1, kappa, lambda, N297G)
light 1: B10 light 1 with E100P
heavy 1: not shown
light 2: B2 light 2 with T72A
heavy 2: B2 heavy 2 with E105D

Residue numbers refer to the chain shown, from its start.

The target of one experiment is human CGRP receptor (human, UniProt Q16602 23-461; O60894 27-148). The experiment is described as follows: cell-based or functional assay.
Chain of human CGRP receptor (Q16602 23-461 limits assumed, chain 1 of 2): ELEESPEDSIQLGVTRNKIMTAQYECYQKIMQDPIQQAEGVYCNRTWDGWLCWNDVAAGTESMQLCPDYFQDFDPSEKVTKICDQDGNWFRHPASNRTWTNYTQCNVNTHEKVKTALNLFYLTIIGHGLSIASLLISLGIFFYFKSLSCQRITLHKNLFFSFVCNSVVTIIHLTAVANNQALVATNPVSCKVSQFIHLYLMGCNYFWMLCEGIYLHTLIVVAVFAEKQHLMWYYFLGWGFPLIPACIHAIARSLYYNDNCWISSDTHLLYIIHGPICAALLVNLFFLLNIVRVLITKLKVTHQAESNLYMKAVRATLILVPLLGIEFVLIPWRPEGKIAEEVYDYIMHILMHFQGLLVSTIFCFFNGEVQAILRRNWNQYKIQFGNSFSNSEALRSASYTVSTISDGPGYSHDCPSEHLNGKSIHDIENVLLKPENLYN
Chain of human CGRP receptor (O60894 27-148 limits assumed, chain 2 of 2): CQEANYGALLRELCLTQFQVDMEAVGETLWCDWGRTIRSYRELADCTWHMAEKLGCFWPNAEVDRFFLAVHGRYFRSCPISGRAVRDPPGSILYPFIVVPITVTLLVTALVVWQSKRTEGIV
Take B1: the “% inhibition of human CGRPR” value was determined as 77%.

Turning to B2, the “% inhibition of human CGRPR” value is 72%.

With B3, the “% inhibition of human CGRPR” value was 87%.

Regarding B4, the “% inhibition of human CGRPR” value came out at 82%.

On to B5, for which the “% inhibition of human CGRPR” value is 92%.

Turning to B6, the “% inhibition of human CGRPR” value was 89%.

Turning to B7, the “% inhibition of human CGRPR” value is 77%.

Take B8: the “% inhibition of human CGRPR” value came to 73%.

Consider B9, for which the “% inhibition of human CGRPR” value stood at 82%.

For B10, the “% inhibition of human CGRPR” value was found to be 82%.

As for B11, the “% inhibition of human CGRPR” value came to 89%.

For B12, the “% inhibition of human CGRPR” value came out at 83%.

In the case of B13, the “% inhibition of human CGRPR” value stood at 79%.

In the case of B14, the “% inhibition of human CGRPR” value came to 94%.

For the next experiment, the target named is T1, human PAC1 receptor. Briefly: cell-based or functional assay.
For B1, the “% inhibition of human PAC1” value was determined as 72%.

As for B2, the “% inhibition of human PAC1” value was determined as 92%.

Turning to B3, the “% inhibition of human PAC1” value was determined as 97%.

Take B4: the “% inhibition of human PAC1” value worked out at 71%.

For the molecule B5, the “% inhibition of human PAC1” value stood at 94%.

Take B6: the “% inhibition of human PAC1” value was determined as 81%.

In the case of B7, the “% inhibition of human PAC1” value was 72%.

In the case of B8, the “% inhibition of human PAC1” value stood at 41%.

Turning to B9, the “% inhibition of human PAC1” value was determined as 29%.

Regarding B10, the “% inhibition of human PAC1” value was 61%.

Turning to B11, the “% inhibition of human PAC1” value was found to be 85%.

On to B12, for which the “% inhibition of human PAC1” value amounted to 87%.

As to B13, the “% inhibition of human PAC1” value amounted to 86%.

Regarding B14, the “% inhibition of human PAC1” value was 104%.
